B1: Monoclonal antibody 1C6.E12.G8 (antibody, mouse IgG1, V domains shown)
VH: SGARELVKPGASVKLSCKTSGFTFNSSYITWLKQKPGQSLEWIAWIYAGNGGTTYNQKFTGKAQLTVDTSSSTAYMQFSSLTTEDSAIYYCASETYTNYWYFDVWGSGTTVTVSS
VL: QSPASLSASVGETVTITCRASGNIHNYLAWYQQKQGKSPQLLVYNAKTLADGVPSRFSGSGSGTQYSLKINSLQPEDFGSYYCQHFWSTPYTFGGGTKLEIK
notes: Murine IgG1 kappa from hybridoma; also called ATCC PTA-123091
B2: Monoclonal antibody 1D2.D8.G10 (antibody, mouse IgG1, V domains shown)
VH: QSGTVLARPGASVKMSCKASGYSFTSNWMHWIKQRPGQGLEWIGAIYPGNSDTSYNQKFKGKAKLTAVTSASTAYMELSSLTNEDSAVYHCTRGDGSSFWYFDVWGAGTTVTVSS
VL: QSPASLVVSLGQRATISCRASKSVSTSGYSYMYWYQQKSGQPPKLLIYLASNLESGVPARFSGGGSGTDFTLNIHPVEEEDAATYYCQQSRELPPTFGGGTKLEIK
notes: Murine IgG1 kappa from hybridoma; also called 1D2.D8.G0; ATCC PTA-123098
B3: Monoclonal antibody 5C12.H8 (antibody, mouse IgG2b, V domains shown)
VH: GPGLVKPSQSLSLTCSVTGYSITSGYYWIWIRQFPGNKLEWMGYISYDGSNNYNPSLKNRISITRDTSKNQFFLKLNSVTTEDTATYYCARGNYYAMDYWGQGTSVTVSS
VL: not shown
notes: Murine IgG2b kappa from hybridoma; also called ATCC PTA-123095

Assays:
[1] = biological target: T1, recombinant purified FRα (ECL assay calibrator) (human, UniProt P15328 25-234); assay: ECL sandwich, FRα calibrator; capture 1A8.G11.E7; binder = detection Ab
T1 construct: Calibrator of the ECL sandwich assays; also called FRα calibrator; FRα standard
T1 sequence (P15328 25-234 limits assumed): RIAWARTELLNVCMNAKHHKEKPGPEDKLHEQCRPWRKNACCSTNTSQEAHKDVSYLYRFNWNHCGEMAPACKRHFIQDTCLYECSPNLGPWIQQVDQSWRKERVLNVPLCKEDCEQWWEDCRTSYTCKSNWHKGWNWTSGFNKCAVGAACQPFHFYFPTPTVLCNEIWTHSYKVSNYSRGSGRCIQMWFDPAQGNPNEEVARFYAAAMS

[2] = biological target: T1, recombinant purified FRα (ECL assay …); assay: ECL sandwich, FRα calibrator; capture 19D2.G9; binder = detection Ab
[3] = biological target: T1, recombinant purified FRα (ECL assay …); assay: ECL sandwich, FRα calibrator; capture 30G6.G6.G4.E9; binder = detection Ab
[4] = biological target: T1, recombinant purified FRα (ECL assay …); assay: ECL sandwich on FRα, signal to background; capture 1D2.G8.G10; binder = detection Ab
[5] = biological target: T1, recombinant purified FRα (ECL assay …); assay: ECL sandwich on FRα, signal to background; capture 30G6.G6.G4.E9; binder = detection Ab
[6] = biological target: T1, recombinant purified FRα (ECL assay …); assay: ECL sandwich on FRα, signal to background; capture 24H8.F3; binder = detection Ab
[7] = biological target: T1, recombinant purified FRα (ECL assay …); assay: ECL sandwich on FRα, signal to background; capture 19D2.G9; binder = detection Ab
[8] = biological target: T1, recombinant purified FRα (ECL assay …); assay: ECL sandwich on FRα, signal to background; capture 24H8.D3; binder = detection Ab
[9] = biological target: T1, recombinant purified FRα (ECL assay …); assay: ECL sandwich, FRα calibrator; capture 1D2.G8.G10; binder = detection Ab
[10] = biological target: T1, recombinant purified FRα (ECL assay …); assay: ECL sandwich, FRα calibrator; capture 24H8.D3; binder = detection Ab
[11] = biological target: T2, recombinant human folate receptor alpha (rhFRα) (human, UniProt P15328 25-234); assay: BIAcore (SPR), format not described
T2 construct: CHO: Ig kappa leader, C-terminal 6xHis replacing the GPI attachment site; also called FOLR1; FOLR-1
T2 sequence (P15328 25-234 limits assumed): as above

[12] = biological target: T1, recombinant purified FRα (ECL assay …); assay: ECL sandwich, FRα calibrator; capture 1C6.E12.G8; binder = detection Ab
[13] = biological target: T1, recombinant purified FRα (ECL assay …); assay: ECL sandwich on FRα, signal to background; capture 6A2.G7; binder = detection Ab
[14] = biological target: T1, recombinant purified FRα (ECL assay …); assay: ECL sandwich on FRα, signal to background; capture 19D4.B7; binder = detection Ab
[15] = biological target: T1, recombinant purified FRα (ECL assay …); assay: ECL sandwich on FRα, signal to background; capture 5C12.H8; binder = detection Ab
[16] = biological target: T1, recombinant purified FRα (ECL assay …); assay: ECL sandwich on FRα, signal to background; capture 28H12.G9; binder = detection Ab
[17] = biological target: T1, recombinant purified FRα (ECL assay …); assay: ECL sandwich on FRα, signal to background; capture 1A8.G11.E7; binder = detection Ab
[18] = biological target: T1, recombinant purified FRα (ECL assay …); assay: ECL sandwich on FRα, signal to background; capture 26A9.C4; binder = detection Ab
[19] = biological target: T1, recombinant purified FRα (ECL assay …); assay: ECL sandwich on FRα, signal to background; capture 2F11.F8; binder = detection Ab
[20] = biological target: T1, recombinant purified FRα (ECL assay …); assay: ECL sandwich, FRα calibrator; capture 2F11.F8; binder = detection Ab
[21] = biological target: T1, recombinant purified FRα (ECL assay …); assay: ECL sandwich, FRα calibrator; capture 26A9.C4; binder = detection Ab
[22] = biological target: T1, recombinant purified FRα (ECL assay …); assay: ECL sandwich on FRα, signal to background; capture 1C6.E12.G8; binder = detection Ab
[23] = biological target: T1, recombinant purified FRα (ECL assay …); assay: ECL sandwich, FRα calibrator; capture 6A2.G7; binder = detection Ab
[24] = biological target: T1, recombinant purified FRα (ECL assay …); assay: ECL sandwich, FRα calibrator; capture 24H8.F3; binder = detection Ab
[25] = biological target: T3, human folate receptor beta (FRβ), recombinant, C-terminal 6xHis (human, UniProt P14207 17-230, limits assumed); assay: direct ELISA, plates coated with 1 µg/mL FR isoform, dilution series of culture supernatant
T3 construct: Transiently expressed in 293F cells and purified; coated on ELISA plates
T3 sequence (P14207 other isoform, or with tags, fused parts or gaps limits assumed): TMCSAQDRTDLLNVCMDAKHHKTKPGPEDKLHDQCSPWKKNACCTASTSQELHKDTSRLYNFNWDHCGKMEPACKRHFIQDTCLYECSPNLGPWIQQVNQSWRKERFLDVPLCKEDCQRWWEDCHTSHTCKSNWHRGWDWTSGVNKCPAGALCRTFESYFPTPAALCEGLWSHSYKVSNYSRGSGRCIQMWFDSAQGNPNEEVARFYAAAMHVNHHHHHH

[26] = biological target: T4, human folate receptor gamma (FRγ), recombinant, C-terminal 6xHis (human, UniProt P41439 23-245, limits assumed); assay: as above
T4 construct: Transiently expressed in 293F cells and purified; coated on ELISA plates
T4 sequence (P41439 other isoform, or with tags, fused parts or gaps limits assumed): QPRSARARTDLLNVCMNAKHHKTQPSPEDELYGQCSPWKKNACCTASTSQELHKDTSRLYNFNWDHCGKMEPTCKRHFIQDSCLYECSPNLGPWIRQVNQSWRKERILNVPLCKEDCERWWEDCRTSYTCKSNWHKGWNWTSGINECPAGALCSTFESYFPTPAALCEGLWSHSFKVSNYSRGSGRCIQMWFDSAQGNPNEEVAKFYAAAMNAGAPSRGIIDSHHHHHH

[27] = biological target: T1, recombinant purified FRα (ECL assay …); assay: ECL sandwich, FRα calibrator; capture 5C12.H8; binder = detection Ab
[28] = biological target: T1, recombinant purified FRα (ECL assay …); assay: ECL sandwich, FRα calibrator; capture 19D4.B7; binder = detection Ab
[29] = biological target: T1, recombinant purified FRα (ECL assay …); assay: ECL sandwich, FRα calibrator; capture 28H12.G9; binder = detection Ab

Row | Specific signal at 500 pg/mL [1] | Specific signal at 500 pg/mL [2] | Specific signal at 500 pg/mL [3] | Average of S/B [4] | Average of S/B [5] | Average of S/B [6] | Average of S/B [7] | Average of S/B [8] | Specific signal at 500 pg/mL [9] | Specific signal at 500 pg/mL [10] | Kd [11] | Specific signal at 500 pg/mL [12] | Average of S/B [13] | Average of S/B [14] | Average of S/B [15] | Average of S/B [16] | Average of S/B [17] | Average of S/B [18] | Average of S/B [19] | Specific signal at 500 pg/mL [20] | also measured | Binder
1 | 54 | 80 | 10900 | 1 | 144 | 1 | 1 | 1 | 53 | 74 | 9.76 nM | 86 | 19 | 449 | 1 | 1 | 1 | 1 | 1 | 67 | Specific signal at 500 pg/mL [21]: 73; Average of S/B [22]: 1; Specific signal at 500 pg/mL [23]: 967; Specific signal at 500 pg/mL [24]: 75; binding result [25]: no binding; binding result [26]: no binding; Specific signal at 500 pg/mL [27]: 70; Specific signal at 500 pg/mL [28]: 37500; Specific signal at 500 pg/mL [29]: 92 | B1
2 | 57 | 67 | 7910 | 1 | 75 | 1 | 1 | 1 | 87 | 79 | 6.88 nM | 74 | 26 | 218 | 1 | 1 | 1 | 1 | 1 | 62 | Specific signal at 500 pg/mL [21]: 86; Average of S/B [22]: 1; Specific signal at 500 pg/mL [23]: 1690; Specific signal at 500 pg/mL [24]: 67; binding result [25]: no binding; binding result [26]: no binding; Specific signal at 500 pg/mL [27]: 73; Specific signal at 500 pg/mL [28]: 21800; Specific signal at 500 pg/mL [29]: 78 | B2
3 | 66 | 77 | 5290 | 1 | 61 | 1 | 1 | 1 | 57 | 71 | 10.8 nM | 58 | 9 | 253 | 1 | 1 | 1 | 1 | 1 | 123 | Specific signal at 500 pg/mL [21]: 78; Average of S/B [22]: 1; Specific signal at 500 pg/mL [23]: 596; Specific signal at 500 pg/mL [24]: 60; binding result [25]: no binding; binding result [26]: no binding; Specific signal at 500 pg/mL [27]: 100; Specific signal at 500 pg/mL [28]: 18400; Specific signal at 500 pg/mL [29]: 68 | B3
